In patent US20070078102A1, “NF-kB oligonucleotide decoy molecules” (published 2007):

B1: NF-κB p50 from nuclear extract of LPS stimulated THP-1 cells (human monocyte cell line) (other, UniProt P19838 1-433, looked up)
chain: MAEDDPYLGRPEQMFHLDPSLTHTIFNPEVFQPQMALPTDGPYLQILEQPKQRGFRFRYVCEGPSHGGLPGASSEKNKKSYPQVKICNYVGPAKVIVQLVTNGKNIHLHAHSLVGKHCEDGICTVTAGPKDMVVGFANLGILHVTKKKVFETLEARMTEACIRGYNPGLLVHPDLAYLQAEGGGDRQLGDREKELIRQAALQQTKEMDLSVVRLMFTAFLPDSTGSFTRRLEPVVSDAIYDSKAPNASNLKIVRMDRTAGCVTGGEEIYLLCDKVQKDDIQIRFYEEEENGGVWEGFGDFSPTDVHRQFAIVFKTPKYKDINITKPASVFVQLRRKSDLETSEPKPFLYYPEIKDKEEVQRKRQKLMPNFSDSFGGGSGAGAGGGGMFGSGGGGGGTGSTGPGYSFPHYGFPTYGGITFHPGTTKSNAGMKHG
B2: 153/154 H5/PO (dsDNA)
DNA 1: AGTTGAGGACTTTCCAGGC
DNA 2: GCCTGGAAAGTCCTCAACT
modifications: strand 153: 5 3'-most linkages PS, strand 154 all PO
B3: decoy 113/114 C-Z (HIV NF-kB promoter) (dsDNA)
DNA 1: AGTTGAGGGGACTTTCCCAGGC
DNA 2: GCCTGGGAAAGTCCCCTCAACT
B4: 153/154 H8/H10 (dsDNA)
DNA 1: AGTTGAGGACTTTCCAGGC
DNA 2: GCCTGGAAAGTCCTCAACT
modifications: strand 153: 8 3'-most linkages PS, strand 154: 10 3'-most PS
B5: 153/154 H10/H8 (dsDNA)
DNA 1: AGTTGAGGACTTTCCAGGC
DNA 2: GCCTGGAAAGTCCTCAACT
modifications: strand 153: 10 3'-most linkages PS, strand 154: 8 3'-most PS
B6: 153/154 H11/PO (dsDNA)
DNA 1: AGTTGAGGACTTTCCAGGC
DNA 2: GCCTGGAAAGTCCTCAACT
modifications: strand 153: 11 3'-most linkages PS, strand 154 all PO
B7: 153/154 H9/H9 (dsDNA)
DNA 1: AGTTGAGGACTTTCCAGGC
DNA 2: GCCTGGAAAGTCCTCAACT
modifications: 9 3'-most linkages PS on both strands
B8: 153/154 H8/H8 (dsDNA)
DNA 1: AGTTGAGGACTTTCCAGGC
DNA 2: GCCTGGAAAGTCCTCAACT
modifications: 8 3'-most linkages PS on both strands
B9: 153/154 H10/H10 (dsDNA)
DNA 1: AGTTGAGGACTTTCCAGGC
DNA 2: GCCTGGAAAGTCCTCAACT
modifications: 10 3'-most linkages PS on both strands

Legend:
[1] = biological target: T1, NF-κB p65 from nuclear extract of LPS stimulated THP-1 cells (human monocyte cell line) (human, UniProt Q04206 1-551); test: EMSA with antibody supershift, THP-1 nuclear extract; heterodimer on DNA probe
T1 construct: also called RelA
T1 sequence (Q04206 whole entry): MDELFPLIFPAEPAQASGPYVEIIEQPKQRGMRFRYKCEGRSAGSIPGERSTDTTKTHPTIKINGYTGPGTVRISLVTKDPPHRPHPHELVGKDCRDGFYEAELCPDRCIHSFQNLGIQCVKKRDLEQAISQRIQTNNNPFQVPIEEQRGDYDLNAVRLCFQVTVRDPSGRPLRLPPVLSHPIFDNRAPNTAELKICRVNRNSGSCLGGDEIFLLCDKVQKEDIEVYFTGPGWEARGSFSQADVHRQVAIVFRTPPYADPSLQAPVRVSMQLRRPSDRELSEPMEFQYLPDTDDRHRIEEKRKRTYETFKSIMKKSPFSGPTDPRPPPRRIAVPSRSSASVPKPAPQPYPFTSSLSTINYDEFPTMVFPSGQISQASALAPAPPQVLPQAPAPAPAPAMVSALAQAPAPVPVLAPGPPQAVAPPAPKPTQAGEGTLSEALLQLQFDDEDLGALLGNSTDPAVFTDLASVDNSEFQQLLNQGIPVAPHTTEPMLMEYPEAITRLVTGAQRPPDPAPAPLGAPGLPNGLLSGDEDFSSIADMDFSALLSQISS
Description: The NF-κB gel shift assays (EMSA) were performed as follows. A double-stranded oligonucleotide containing a consensus NF-κB binding site (5′ […] 3′) (SEQ ID NO: 78) was end-labeled with γ³²P-ATP using T4 Polynucleotide Kinase (Promega). Alternatively, a double-stranded ODN containing a consensus NF-κB binding site from the IL-6 promoter (5′ […] 3′) (SEQ ID NO: 94) was end-labeled with γ³²P-ATP using T4 Polynucleotide Kinase (Promega). One microgram of a nuclear extract prepared from LPS stimulated THP-1 cells (human monocyte cell line) was incubated with 35 fmol of radiolabeled probe in the presence or absence of competing unlabeled NF-κB double-stranded oligonucleotides (dsODN) or scrambled dsODN. The incubations were carried out at room temperature for 30 minutes in a 20 μl reaction volume composed of 10 mM Tris-HCl pH 8, 100 mM KCL, 5 mM MgCl2, 2 mM DTT, 10% Glycerol, 0.1% NP-40, 0.025% BSA and 1 μg Poly-dIdC. The reactions were loaded onto a 6% polyacrylamide gel, subjected to electrophoresis and dried. The dried gels were imaged and quantitated using a Typhoon 8600 PhosphorImager (Amersham) and ImageQuant software. […]

[2] = biological target: T2, NF-kB p50/p50 homodimer (NFKB1) (Homo sapiens, UniProt P19838 P19838:1-433); test: competition; EMSA competition vs HIV NF-kB probe 113/114; settings: protein: extract; tags: endogenous, nuclear extract of LPS-stimulated THP-1 cells; chain copies: 2 (stated)
Excerpt: (§1) The EMSA assay was employed to characterize oligonucleotide decoys for the NF-κB transcription factor. […] Using the above modified oligonucleotides to compete for binding for the above-mentioned NF-κB family members, it was possible to compare the binding affinity of these oligonucleotides against the high affinity radiolabeled probe and each other. This assay has also enabled the design of a decoy which selectively binds particular members of the NF-κB family. By using increasing concentrations of various oligonucleotides, it was observed that, by deleting or changing targeted residues in the binding site, it was possible to specifically decrease the binding of the decoy molecule to p50/p50 homodimers, while retaining the affinity for p65/p50 and cRel/p50 heterodimers.
(§2) The NF-κB gel shift assays (EMSA) were performed as follows. A double-stranded oligonucleotide containing a consensus NF-κB binding site (5′ […] 3′) (SEQ ID NO: 78) was end-labeled with γ³²P-ATP using T4 Polynucleotide Kinase (Promega). Alternatively, a double-stranded ODN containing a consensus NF-κB binding site from the IL-6 promoter (5′ […] 3′) (SEQ ID NO: 94) was end-labeled with γ³²P-ATP using T4 Polynucleotide Kinase (Promega). One microgram of a nuclear extract prepared from LPS stimulated THP-1 cells (human monocyte cell line) was incubated with 35 fmol of radiolabeled probe in the presence or absence of competing unlabeled NF-κB double-stranded oligonucleotides (dsODN) or scrambled dsODN. The incubations were carried out at room temperature for 30 minutes in a 20 μl reaction volume composed of 10 mM Tris-HCl pH 8, 100 mM KCL, 5 mM MgCl2, 2 mM DTT, 10% Glycerol, 0.1% NP-40, 0.025% BSA and 1 μg Poly-dIdC. The reactions were loaded onto a 6% polyacrylamide gel, subjected to electrophoresis and dried. The dried gels were imaged and quantitated using a Typhoon 8600 PhosphorImager (Amersham) and ImageQuant software.

[3] = biological target: NF-kB p65/p50 heterodimer (RelA/NFKB1) (Homo sapiens, UniProt Q04206;P19838 Q04206:1-551,P19838:1-433); test: EMSA; competition vs 32P 113/114 probe, THP-1 nuclear extract, RT; settings: protein: extract; tags: none; nuclear extract of LPS-stimulated THP-1 cells
Chain of NF-kB p65/p50 heterodimer (RelA/NFKB1) (Q04206 whole entry, one chain of several): as the sequence (Q04206 whole entry) above
Excerpt: as §1
The NF-κB gel shift assays (EMSA) were performed as follows. A double-stranded oligonucleotide containing a consensus NF-κB binding site (5′ […] 3′) (SEQ ID NO: 78) was end-labeled with γ³²P-ATP using T4 Polynucleotide Kinase (Promega). Alternatively, a double-stranded ODN containing a consensus NF-κB binding site from the IL-6 promoter (5′ […] 3′) (SEQ ID NO: 94) was end-labeled with γ³²P-ATP using T4 Polynucleotide Kinase (Promega). […] The dried gels were imaged and quantitated using a Typhoon 8600 PhosphorImager (Amersham) and ImageQuant software.

[4] = biological target: T2, NF-kB p50/p50 homodimer (NFKB1); test: EMSA; competition vs 32P 113/114 probe; settings: protein: extract; tags: none; nuclear extract of LPS-stimulated THP-1 cells; chain copies: 2 (stated homodimer)
Excerpt: as §1, §2

Binder	IC50 [2] [fold molar excess]	other results
B1	–	binding result [1]: binds
B2	83	–
B3	–	IC50 [3]: 5 fold molar excess; IC50 [4]: 5 fold molar excess
B4	39	–
B5	21	–
B6	33	–
B7	30	–
B8	53	–
B9	42	–
